One data set has as its target E2F-1 (UniProt Q01094 Q01094:1-437). Put plainly: cell_activity; CAT stimulation by CMV-E2F in L6 muscle cells; tetramer on minimal GAPDH promoter. The conditions noted are these: tags: CMV-E2F expression plasmid.
Data set [1] has as its target T1, GST-RBAP-1 (E2F-1) (UniProt Q01094 Q01094:1-437). Put plainly: competition; competitor vs labelled IRE-A. The conditions noted are these: tags: GST fusion, bacterial expression, glutathione Sepharose purified; label: 32P when used as probe. As to the method:
(§1) FIG. 4C is an electrophoretic mobility shift assay showing IRP-A and GST-RBAP-1 complexes with IRE-A DNA. GST-RBAP-1 (lanes 1–3) or nuclear proteins isolated from fasted-refed liver nuclear extract (lanes 4–6) were incubated with ^32P-labelled IRE-A DNA in the presence of: lanes 1 and 4, mutant IRE-A DNA (GC→TA); lanes 2 and 5, wild-type E2 DNA; and, lanes 3 and 6, mutant E2 DNA (GC→TA) as described above.
(§2) The EMSA procedure has been described previously (Nasrin, et al., Proc. Natl. Acad. Sci. USA, 87:5273–5277, 1990). Nuclear extract or GST-RBAP-1 was incubated with 0.25–0.5 ng of ^32P-labelled oligo in 20 μl of binding buffer containing 10 mM HEPES (pH 7.9), 0.1 mM EDTA, 10 mM MgCl_2, 5 mM KCl, 150 mM NaCl, 25 mM DTT and 250 ng of poly(dI)poly(dC). The reaction products were separated at 4° C. in a 4.5% polyacrylamide gel run in 50 mM Tris-HCL (pH 8.5), 380 mM glycine and 2 mM EDTA. The gel was dried and exposed to film. The sequences of the oligonucleotides used to characterize IRE-A-like and E2F-like DNA binding activities are shown. Cognate E2F sites include E2F wild-type, 5'-[…]-[…]-3' (SEQ ID NO: 4); E2F mutant, 5'-ATT-[…]-3' (SEQ ID NO: 5); DRTF wild-type, 5'-[…]-3' (SEQ ID NO: 6). The GAPDH IRE-A used for gel shifts included nucleotides −487 to −408 of the promoter (Nasrin, et al., Proc. Natl. Acad. Sci. USA, 87:5273–5277, 1990). […]

Data set [2] has as its target T1, GST-RBAP-1 (E2F-1). The experiment in a line: competition; mutant competitor vs labelled IRE-A. The following applies: tags: GST fusion, bacterial expression, glutathione Sepharose purified. The procedure: as §1, §2

T1 sequence (Q01094 whole entry, the tested form may be a part, one chain of several): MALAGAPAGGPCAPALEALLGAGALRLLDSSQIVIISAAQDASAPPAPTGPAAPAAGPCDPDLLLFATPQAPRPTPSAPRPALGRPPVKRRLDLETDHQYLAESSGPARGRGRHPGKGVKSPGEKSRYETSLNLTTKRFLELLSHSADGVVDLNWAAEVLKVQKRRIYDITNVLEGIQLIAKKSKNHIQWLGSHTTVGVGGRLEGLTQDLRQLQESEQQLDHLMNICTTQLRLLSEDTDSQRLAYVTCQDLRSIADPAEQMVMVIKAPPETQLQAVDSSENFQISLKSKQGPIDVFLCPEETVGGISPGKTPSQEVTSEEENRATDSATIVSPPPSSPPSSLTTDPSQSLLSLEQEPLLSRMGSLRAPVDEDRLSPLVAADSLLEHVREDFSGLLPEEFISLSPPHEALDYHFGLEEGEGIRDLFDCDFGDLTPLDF
Chain of E2F-1 (Q01094 whole entry, the tested form may be a part, one chain of several): as above

B1: IRE-A minimal motif tetramer-CAT (dsDNA)
DNA 1: AAGTTCCCCAACTTTCCCGCCTCTCAGCCTTTGAAAG
DNA 2: CTTTCAAAGGCTGAGAGGCGGGAAAGTTGGGGAACTT
For the molecule B1, in the data set with E2F-1, the activity was 7 fold.

B2: E2 (cognate E2F site) wild-type (dsDNA)
DNA 1: ATTTAAGTTTCGCGCCCTTTCTCAA
DNA 2: TTGAGAAAGGGCGCGAAACTTAAAT
As for B2, the binding result with GST-RBAP-1 (E2F-1) [1] is given as “binds”.

B3: E2 mutant (GC to TA) (dsDNA)
DNA 1: ATTTAAGTTTCGATCCCTTTCTCAA
DNA 2: TTGAGAAAGGGATCGAAACTTAAAT
With B3, the binding result with GST-RBAP-1 (E2F-1) [2] is “no binding”.
